These results are taken from the nanobody polyreactivity screen of Harvey et al. (2022).

A short description of this series: yeast display, Sf9 membrane polyspecificity reagent, FACS + sequencing; frameworks hold sequencing errors. The essentials:
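Galactose induction of a Saccharomyces cerevisiae BJ5465 synthetic nanobody display library ran 36–48 hours. The cells were then stained for 1 hour at 4 °C with 10% biotinylated, detergent-solubilized Sf9 membrane reagent, pulled down on streptavidin microbeads and FACS-sorted into low and high (top ~1%) gates on expression and reagent-binding fluorescence. Labels for polyreactivity follow the gate of origin.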
Consider “QVQLVESGGGLVQAGGSLRLSCASSGYIIIIYAMGWYRQAPGKERELVAAINRRGGSTYYADSVKGRFTISRDNAKNTVYLQMNSLKREDTEVYYCNAYPYFSRGPHLYDYWGQGTQVTGSS”, for which the “polyreactivity (PSR sort gate)” value is “high polyreactivity”.

Turning to “QVQLVESGGGLVQAGGSLRLSCASSVRTLAYNSRGCYRQATGKERELVASITSGGSTNYADSVKGRFTISRDNAKNTVYLQMNSLKPEDTAVYYCNKDGKYHRVLYDYWGQGTQVTVSS”, the “polyreactivity (PSR sort gate)” value was “low polyreactivity”.

Regarding “QVQLVESGGGLVQAGGSLRLSCASTGRIFDRNAMGWYRQAPGKVRELVAAISRRGGSTYYADSVKGRFTISRDNAKNNVYLQMNILKPEDTAVYYCNSGYSTRLHDYWGQGTQVTVSS”, the “polyreactivity (PSR sort gate)” value was “high polyreactivity”.

“QVQLVESGGGLVQAGGSLRLSCASYGYIFWSYAMGWYRQAPGKERELVAAISASGGRTYYADSVKGRFTISRDNAKNTVYLQMNSLKPEDTAVYYCNADPGNHAYWYYGEFYYYTYDYWGQGTQVTVSS”: the “polyreactivity (PSR sort gate)” value is listed as “low polyreactivity”.

Consider “QVQLVESGGGLVQAGGSLRLSCATSGRIFGTNAMGWYRQAPGKERELVADITSGGSTNYADSVKGRFTISRDNAKNTVYVQMNSLKPEDTAVYYCAADVIGDLRWYRDEYWGQGTQVTVSS”, for which the “polyreactivity (PSR sort gate)” value is listed as “low polyreactivity”.

For the sequence “QVQLVESGGGLVQAGGSLRLSCAYSGLTFTWYAMGWYRQAPGKERELVAGISSGTSTNYADSVKGRFSISRDTAKNTVYLQMNSMKAEATAVYYCNAKQLGKFDYWGQGTHVTVSS”, the “polyreactivity (PSR sort gate)” value is “low polyreactivity”.

In the case of “QVQLVESGGGLVQAGGSLRLSCCATGSIFYSYVMGWYRQAPGKEREWFAAISRNGQSTYYADSVKGRFTISLDNAKNTVYLQMNSLKPDDTAVYYCAARSRDKYDYWGQGTQVTVSS”, the “polyreactivity (PSR sort gate)” value is recorded as “high polyreactivity”.

In the case of “QVQLVESGGGLVQAGGSLRLSCDASGFIFYGYVMGWYRQAPGKERELVAAITIGGSTNYADSVKGRFTISRDNAKNTVYLQRNSLKPEDTAVYYCAADQRSVTVGMDSWGQGTQVTVSS”, the “polyreactivity (PSR sort gate)” value is “low polyreactivity”.

“QVQLVESGGGLVQAGGSLRLSCDASGFTFYGYAMGWYRQAPGKERELVAAISGNGARTYYADSVKGRFTISRDNAKNTVYLQMNSLKPEDTAVYYCNADPATWWRNKEDYWGQGTQVTVSS”: the “polyreactivity (PSR sort gate)” value is on record as “high polyreactivity”.

Regarding “QVQLVESGGGLVQAGGSLRLSCDASGFTFYYYTMGWYRQAPGKERELVAAITWRGGSTNYADSVKGRFTISRDNAKNTVYVQMNSLKPEDTAVYYCAAVTYWFWPGMDYWGQGTQVTVSS”, the “polyreactivity (PSR sort gate)” value is “low polyreactivity”.

Regarding “QVQLVESGGGLVQAGGSLRLSCDASGFTVVIYTMGWYRQAPGKERELVAAINWSGASTYYADSVKGRFTISRDNAKNTVYLQINSLKPEDTAVYYCNRVYVQQDFPYKIYPYNYWGQGTQVTVSS”, the “polyreactivity (PSR sort gate)” value was “high polyreactivity”.

In the case of “QVQLVESGGGLVQAGGSLRLSCDASGGIFRFNSMGWYRQAPGKERELVAGISSTYYADSVKGRFTISRDNAKNTVYLQMNSLKPEDTAVYYCAAAGPEEHGYTYPGNNQMESWGQGTQVTVSS”, the “polyreactivity (PSR sort gate)” value is “low polyreactivity”.

On to “QVQLVESGGGLVQAGGSLRLSCDASGGTFYRNAMGWYRQAHGKERELVAVISKRGTSTYYADSVKGRFTISRDNAKNTVYLQMNSLKPEDTAVYYCATVYYHLSPNRPYGYWGQGTQVTLSS”, for which the “polyreactivity (PSR sort gate)” value is given as “high polyreactivity”.

“QVQLVESGGGLVQAGGSLRLSCDASGITFVRYTIRWYRQAPGKEREFVAGITRGGSTYYADSVKGRFTISPDNAKNNVFLQRNSLKPEDTAVYYCAARPRFLRASVEYDYWGQGTQVTVSS”: the “polyreactivity (PSR sort gate)” value is “high polyreactivity”.

In the case of “QVQLVESGGGLVQAGGSLRLSCDASGLIFYSYAMGWYRQAPGKERELVAAISSRGGSTYYADSVKGRFTISRDNAKNTVYLQMNSLKQEDSAVYYCNAYFLLPHYDYWGQGTQVTVSS”, the “polyreactivity (PSR sort gate)” value is given as “low polyreactivity”.

For the sequence “QVQLVESGGGLVQAGGSLRLSCDASGRIFGRYAMGSYRPAPGNDRELVAAIPRNGGSTYADSVKGRFTISRDNAKNTVYLQMNSLKPEDTAVYYCAARNSYRYSKYDYWGQGTQVTVSS”, the “polyreactivity (PSR sort gate)” value was “high polyreactivity”.

For the sequence “QVQLVESGGGLVQAGGSLRLSCDASGRIFGYYAMGWYRQAPGKERELVAAISDGGSTDYADSVKGRFTISRDNAKNTVYLQMNSLKPEDTAVYYCNADRLYLYNVEYDYWGQGTQVTVSS”, the “polyreactivity (PSR sort gate)” value is “low polyreactivity”.

With “QVQLVESGGGLVQAGGSLRLSCDASGRIFRANAMGWYRQAPGKERELVASISRGGSTNYADSVKGRFTISRDNAKNTVYLQMNRLKPEDTAVYYCAARLGFYPYGYTSWYTVYYWGQGTQVTVSS”, the “polyreactivity (PSR sort gate)” value is on record as “low polyreactivity”.

Take “QVQLVESGGGLVQAGGSLRLSCDASGRIFRYNSMGWYRQAPGKEREFVAAITWRGGSTYYADSVKGRFTISRDNAKYNVYFQMNSLKPEDTAVYYCATRSPFGAAYEYGYWGQGTQVTVSS”: the “polyreactivity (PSR sort gate)” value was “high polyreactivity”.

With “QVQLVESGGGLVQAGGSLRLSCDASGRNFRRNAMGWYRQAPGKERELVAAITGGGSTNYADSVKGRFTISRDNAKNTVYLQMNSLKPEDTAVYYCAARRYGVRTYRFDSWGQGTQVTVSS”, the “polyreactivity (PSR sort gate)” value is given as “high polyreactivity”.

In the case of “QVQLVESGGGLVQAGGSLRLSCDASGRTCFKYAMGWYRQAPGKERELVATITSSGGITYADSVKGRFTISRDNAKNTVYLQMNSLKPEDTAVYYCNARVWVTHYSELNYWGQGTQVTVSS”, the “polyreactivity (PSR sort gate)” value is given as “low polyreactivity”.

“QVQLVESGGGLVQAGGSLRLSCDASGRTFGQNAMGWYRQAPGKERELVAGIDWSCGNTYYADSVKGRFTISRDNAKNTVYLQMNSLKPEDTAVYYCNTEGGRDTDWYDYWGQGTQVTVSS”: the “polyreactivity (PSR sort gate)” value was “low polyreactivity”.

For the sequence “QVQLVESGGGLVQAGGSLRLSCDASGRTFYRNDMGWYRQAPGKERELVAAISSGGSTTYADSVKGRFTISRDNAKNTVYLQMNSLKPEDTAVYYCAADFLDYWGVYGWAEYEYWGQGTQVTVSS”, the “polyreactivity (PSR sort gate)” value is on record as “low polyreactivity”.

Take “QVQLVESGGGLVQAGGSLRLSCDASGRTFYVYAMGWYRQAPGKERELVAAISSSGGSTYYADSVKGRFTISRDNAKNTVYLQMNSLKPEDTAVYYCAVVTPRYYGDTKYDYWGQGTQVTVSS”: the “polyreactivity (PSR sort gate)” value was “high polyreactivity”.

As for “QVQLVESGGGLVQAGGSLRLSCDASGSIFAWYAMGWYRQAPGKERELVATITWSGGSTYYADSVKGRFTISRDNANNTVYLQMNSLKQEDTAVYYCAADRVWPYYQYDYWGQGTQVSVSS”, the “polyreactivity (PSR sort gate)” value is reported as “low polyreactivity”.

“QVQLVESGGGLVQAGGSLRLSCDASGSIFAYYAMRWYRPAPGKERELVAAISSRGGNTYYADSVKGRFTISRDYAKNTVYLQMNSLKPEDNAVYYCAAYSASYTFDYWGQGTQVTVSS”: the “polyreactivity (PSR sort gate)” value was “high polyreactivity”.

Consider “QVQLVESGGGLVQAGGSLRLSCDASGSIFDRYVMGWYRQAPGKERELVAAITTSGDGTYYADSVKGRFTISRDNAKNSVYLQMNSLKREDTAVYYCAAVRRSWKYSTSDYWGQGTQVTVSS”, for which the “polyreactivity (PSR sort gate)” value is listed as “low polyreactivity”.

With “QVQLVESGGGLVQAGGSLRLSCDASGSIFPVYAMGWYRQAPGKERELVAAISSRGGRTYYADSVKGRFTISRDNAKNTVYLQMNSLKPEDNAVYYCATDYATYYRLPSQYDYWGQGTQVTVSS”, the “polyreactivity (PSR sort gate)” value was “low polyreactivity”.

Regarding “QVQLVESGGGLVQAGGSLRLSCDASGSIFPYNAMGWYRQAPGKEREFVAAINLSGRSTNYADSVKGRFTISRDNAKNTVYLQMNSLKPEDTAVYYCNAPFVYFWPLNFDYWGQGTQVTVSS”, the “polyreactivity (PSR sort gate)” value is “low polyreactivity”.

For the sequence “QVQLVESGGGLVQAGGSLRLSCDASGSIFRGNAMGCYRQAPGKERELVPDITSGSNTYYADSVKGRFTISRDNAKNTVYLQMNSLKPEDTAVYYCAADGVAYPWWSVYNSFDYWGQGTQVTVSS”, the “polyreactivity (PSR sort gate)” value was “low polyreactivity”.
